Test results published in patent publication US20250090676A1 (SUTRO BIOPHARMA, published 2025).
Changes are numbered by the printed parent chain.

B1: SRP1848-E01 (antibody, V domains shown)
VH: EVQLVESGGGLVQPGGSLRLSCAASGFNITNKYIHWVRQAPGKGLEWVGGITPFDGFTDYADSVKGRFTISADTSKNTAYLQMNSLRAEDTAVYYCARGSWSWPAGYGYYQDYWGQGTLVTVSS
VL: not shown
notes: IgG with common trastuzumab LC, cell-free expressed, HIS- and FLAG-tagged; also called Antibody 31
B2: SRP1848-E02 (antibody, V domains shown)
VH: EVQLVESGGGLVQPGGSLRLSCAASGFNIGKYSIHWVRQAPGKGLEWVGEIYPNDGNTDYADSVKGRFTISADTSKNTAYLQMNSLRAEDTAVYYCARGSWSWRSGYGYYLDYWGQGTLVTVSS
VL: not shown
notes: IgG with common trastuzumab LC, cell-free expressed, HIS- and FLAG-tagged; also called Antibody 32
B3: SRP1848-E05 (antibody, V domains shown)
VH: B2 VH with L20V, K31V, S33Y, E50G, Y52T, N57Y, S100F, S102A
VL: not shown
notes: IgG with common trastuzumab LC, cell-free expressed, HIS- and FLAG-tagged; also called Antibody 34
B4: SRP1848-E07 (antibody, V domains shown)
VH: B2 VH with G30R, Y32S, Y52F, N54Y, N57S, S63N, S100A, L111I
VL: not shown
notes: IgG with common trastuzumab LC, cell-free expressed, HIS- and FLAG-tagged; also called Antibody 36
B5: SRP1848-F01 (antibody, V domains shown)
VH: B2 VH with G30R, K31T, E50S, Y52F, N57T, S102A, S105A, G108S
VL: not shown
notes: IgG with common trastuzumab LC, cell-free expressed, HIS- and FLAG-tagged; also called Antibody 37
B6: SRP1848-F02 (antibody, V domains shown)
VH: B2 VH with G30R, K31T, E50S, Y52F, N57T, F68L, R104Q, S105A
VL: not shown
notes: IgG with common trastuzumab LC, cell-free expressed, HIS- and FLAG-tagged; also called Antibody 38
B7: SRP1848-F05 (antibody, V domains shown)
VH: B2 VH with G30S, Y32S, N57S, S102A, G108S, Y110F
VL: not shown
notes: IgG with common trastuzumab LC, cell-free expressed, HIS- and FLAG-tagged; also called Antibody 40
B8: SRP1848-F06 (antibody, V domains shown)
VH: B2 VH with G30S, K31L, Y32S, S33Y, E50G, Y52S, N54I, S100F, S102A
VL: not shown
notes: IgG with common trastuzumab LC, cell-free expressed, HIS- and FLAG-tagged; also called Antibody 41
B9: SRP1848-F07 (antibody, V domains shown)
VH: B2 VH with G30S, K31N, Y32H, N57I, R87S, S102D, G108S
VL: not shown
notes: IgG with common trastuzumab LC, cell-free expressed, HIS- and FLAG-tagged; also called Antibody 42
B10: SRP1848-F08 (antibody, V domains shown)
VH: EVQLVESGGGLVQPGGSLRLSCAAGGFNISNHSIHWVRQAPGKGVEWVGEIYPVDGITDYADSVKGRFTISADTSKNTAYLRMNSLRAEDTAVYYCARGSWYWQSGYSYYLDYWGQGTLVTVSS
VL: not shown
notes: IgG with common trastuzumab LC, cell-free expressed, HIS- and FLAG-tagged; also called Antibody 43
B11: SRP1848-F09 (antibody, V domains shown)
VH: B1 VH with T30S, K32H, T52S, F54L, F57Y, S100A, P104R, A105S, Q111I
VL: not shown
notes: IgG with common trastuzumab LC, cell-free expressed, HIS- and FLAG-tagged; also called Antibody 44
B12: SRP1848-F10 (antibody, V domains shown)
VH: B2 VH with G30S, K31N, Y32N, E50S, Y52F, N57Y, S102F
VL: not shown
notes: IgG with common trastuzumab LC, cell-free expressed, HIS- and FLAG-tagged; also called Antibody 45
B13: SRP1848-F11 (antibody, V domains shown)
VH: B1 VH with T30S, K32N, F54I, F57N, K76M, S102Y, P104R, Q111L, T118A
VL: not shown
notes: IgG with common trastuzumab LC, cell-free expressed, HIS- and FLAG-tagged; also called Antibody 46
B14: SRP1848-G01 (antibody, V domains shown)
VH: B2 VH with G30S, K31R, Y32H, E50W, Y52A, N57S, S102A, G108S, Y110F
VL: not shown
notes: IgG with common trastuzumab LC, cell-free expressed, HIS- and FLAG-tagged; also called Antibody 47
B15: SRP1848-G03 (antibody, V domains shown)
VH: B1 VH with T30S, N31T, K32Y, F54S, F68S, A105S, Y107H, Y110F, Q111L
VL: not shown
notes: IgG with common trastuzumab LC, cell-free expressed, HIS- and FLAG-tagged; also called Antibody 48
B16: SRP1848-H01 (antibody, V domains shown)
VH: EVQLVESGGGLVQPGGSLRLSCAASGFNIRTQSIHWVRQAPGKGLEWIGDIFPIDGITDYADSVKGRFTISADTSKNTAYLQMNSLRAEDTAVYYCARGSWSWPSGMDYYLDYWGQGTLVTVSS
VL: not shown
notes: IgG with common trastuzumab LC, cell-free expressed, HIS- and FLAG-tagged; also called Antibody 55
B17: SRP1848-E06 (antibody, V domains shown)
VH: EVQLVESGGGLVQPSGSLRLSCAASGFNINRYYIHWVRQAPGKGLEWVGGITPNDGYTDYADSVEGRFTTSADTSKNTAYLQMNSLRAEDTAVYYCARGTWSWPSGHSYYLDYWGQGTLVTVSS
VL: not shown
notes: IgG with common trastuzumab LC, cell-free expressed, HIS- and FLAG-tagged; also called Antibody 35
B18: SRP1848-E03 (antibody, V domains shown)
VH: B1 VH with V12A, T30G, K32Y, F54R, M83V, Y107H, G108S, Q111L
VL: not shown
notes: IgG with common trastuzumab LC, cell-free expressed, HIS- and FLAG-tagged; also called Antibody 33

Target: T1, human FOLR1-HIS (human, UniProt P15328 25-233)
T1 construct: Analyte of the Biacore assay; also called FolRα-ECD; extracellular domain of FOLR1; not shown: HIS tag
Experiment: SPR (Biacore), antibody captured on anti-Fc, human FOLR1-HIS analyte, 25 C
Description: Anti-Fc polyclonal antibodies were immobilized onto a CM5 chip (GE Life Sciences) using amine coupling chemistry (from Amine Coupling Kit, GE Life Sciences). The immobilization steps were carried out at a flow rate of 25 μL/min in 1×HBS-EP+ buffer (GE Life Sciences; 10× Stock diluted before use). […] Ethanolamine (1 M, pH 8.5) was injected for 7 min to block any remaining activated groups. An average of 12,000 response units (RU) of capture antibody was immobilized on each flow cell.
Off-rate and kinetic binding experiments were performed at 25° C. using 1×HBS-EP+ buffer. […] Between each ligand capture and analyte binding cycle, regeneration was carried out using 2 injections of 10 mM glycine pH 2.0 for 30 seconds at 30 μL/min, followed by a 30 second buffer wash step.
The data were fit with the Biacore T200 Evaluation software, using a 1:1 Langmuir binding model. KD (affinity, nM) was determined as a ratio of the kinetic rate constants calculated from the fits of the association and dissociation phases.

T1 sequence (P15328 25-233 limits assumed): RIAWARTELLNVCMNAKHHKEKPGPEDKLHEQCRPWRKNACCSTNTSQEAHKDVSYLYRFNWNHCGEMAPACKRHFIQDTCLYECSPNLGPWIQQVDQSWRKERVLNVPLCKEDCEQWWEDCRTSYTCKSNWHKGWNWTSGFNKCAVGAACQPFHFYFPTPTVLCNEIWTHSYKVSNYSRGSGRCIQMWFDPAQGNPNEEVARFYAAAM

Binder	Kd [nM]	koff [s⁻¹]	kon [M⁻¹ s⁻¹]
B1	7.87	0.00522	664000
B2	6.21	0.00707	1.14e+06
B3	3.51	0.00251	716000
B4	1.91	0.0024	1.25e+06
B5	3.18	0.00362	1.14e+06
B6	4.49	0.00637	1.42e+06
B7	2.4	0.00157	656000
B8	17	0.00775	456000
B9	1.56	0.00249	1.6e+06
B10	4.58	0.00272	594000
B11	4.85	0.00679	1.4e+06
B12	2.83	0.00247	872000
B13	4.71	0.0039	828000
B14	5.09	0.00226	444000
B15	1.99	0.00197	990000
B16	2.11	–	–
B17	1.63	–	–
B18	2.67	0.00183	688000
